# According to paper PMC7385938 (Cell Stress & Chaperones, 2020):
# Molecular target: the molecule itself
# Assay: non-reducing LDS-PAGE of proteoliposomes
Protein,stoichiometry N,binding result
HSPA5-N (N-terminal end domain of HSPA5) (domain or fragment) not shown,2,
HSPA5-FL (full-length human HSPA5 without the leading signal peptide for ER translocation) (natural protein) not shown,,binds
HSPA1-N (N-terminal end domain of HSPA1) (domain or fragment) not shown,,binds
